This note sets out measurements from patent US12527847B1, “Compositions and methods for reducing blood ethanol concentration through alcohol dehydrogenase and acetaldehyde scavengers” (Goa Therapeutics Corporation, priority 2025, dated 2026).

The nature of series [1]: In vitro reduction of EtOH by ADH and AcH scavengers (NAD/NADH-based enzymatic assay, 340 nm). The series is classed as biochemical. The settings on record: 200 U ADH, 455 mg scavenger mixture, pH 7.4, 37° C., 30 minutes. On the procedure:
(§1) An in vitro study was conducted to evaluate the effect of a combined formulation of ADH and AcH scavengers on the reduction of EtOH and AcH concentrations. The study was designed to assess the enzymatic conversion of EtOH to AcH by ADH and the subsequent removal of AcH by scavengers. The experiment was performed using enzyme preparation from yeast (Saccharomyces cerevisiae).
(§2) The following materials and reagents were used: EtOH 99.9% pure, analytical grade and ADH purified from Saccharomyces cerevisiae (500 U/mg protein) (SEQ ID NO: 1, see Table 1). AcH scavenger-containing composition (total 455 mg): Thiamine hydrochloride (Vitamin B1): 100 mg; Glutathione (GSH): 15 mg; NAC (N-Acetyl-Cysteine) OR L-Cysteine: 200 mg; α-Lipoic acid: 40 mg; Pyridoxine hydrochloride (Vitamin B6): 100 mg and buffer Solution: 100 mM sodium phosphate buffer, pH 7.4.
(§3) The experiment was conducted in triplicate with appropriate controls to ensure reproducibility. […]
(§4) EtOH concentration was measured using a NAD/NADH-based enzymatic assay with a spectrophotometer at 340 nm. AcH concentration was measured using a modified Hantzsch reaction assay, which detects AcH at 412 nm.

Series [2] in a line: In vitro AcH concentration after ADH and AcH scavengers (modified Hantzsch reaction assay, 412 nm). The settings on record: 100 mM EtOH start, 200 U ADH, 455 mg scavenger mixture, pH 7.4, 37° C., 30 minutes. The series is classed as biochemical. As to the method: as §1, §2, §3, §4
Series [3] in a line: In vivo blood EtOH concentration in rodents after oral EtOH. Further details: species or system Sprague-Dawley rats. The settings on record: rat blood, 2 g/kg EtOH oral, ADH 600 U/kg IP. As to the method: The study was performed to evaluate the efficacy of a combined formulation of ADH and AcH scavengers in reducing blood EtOH and AcH concentrations in an in vivo rodent model.
12 male Sprague-Dawley rats (200 to 250 g), housed under standard conditions (12-hour light/dark cycle, 22±2° C.) were administered with 2 g/kg EtOH orally via gavage.
Groups (n=3): Group 1 (Control): EtOH only (no ADH or scavengers). Group 2: EtOH+ADH (600 U/kg, intraperitoneally). Group 3: EtOH+AcH scavenger-containing composition. Group 4 (Combined): EtOH+ADH (600 U/kg, IP)+AcH scavenger-containing composition.
Blood samples were collected from the tail vein at 0, 15, 30, 60, and 120 minutes post-EtOH administration. EtOH concentration was measured using a NAD/NADH-based enzymatic assay.

Series [4] deals with ADH purified from Saccharomyces cerevisiae. The series is described as follows: Enzyme kinetics of ADH with AcH scavengers (Michaelis-Menten, NADH production at 340 nm). The series is classed as biochemical. The settings on record: pH 7.4, 37° C., 5 min incubation. As to the method:
ADH purified from Saccharomyces cerevisiae (500 U/mg protein) was used. EtOH Concentrations: 5, 10, 20, 50, 100, 200 mM. Reaction Volume: 1 mL with 100 mM sodium phosphate buffer (pH 7.4). 37° C., 5 min incubation. NADH production measured at 340 nm using a spectrophotometer. Two groups: a) control ADH+EtOH; and b) ADH+EtOH+AcH scavenger mixture.

The next series deals with ADH. The series can be described thus: Stability and degradation profile of ADH in the presence of AcH scavengers over time. It is filed as physicochemical, Saccharomyces cerevisiae. The following applies: 37° C., gentle shaking. On the procedure: Conditions: 37° C. for up to 60 min with gentle shaking (100 rpm), ADH activity assessed via NADH production (340 nm). AcH scavenger-containing composition (total 455 mg): Thiamine hydrochloride (Vitamin B1): 100 mg; Glutathione (GSH): 15 mg; NAC (N-Acetyl-Cysteine) OR L-Cysteine: 200 mg; α-Lipoic acid: 40 mg; Pyridoxine hydrochloride (Vitamin B6): 100 mg and buffer Solution: 100 mM sodium phosphate buffer, pH 7.4.

In series [5] the test system is HepG2 Liver Cells. The series is described as follows: HepG2 cell viability under EtOH exposure (MTT assay). The series is classed as cell-based. The following applies: HepG2, 100 mM EtOH for 24 hours. As to the method: (§5) Cells were exposed to 100 mM EtOH for 24 hours. Group 1 (Control): EtOH only; Group 2: EtOH+ADH; Group 3: EtOH+AcH scavenger-containing composition; and Group 4 (Combined): EtOH+ADH+AcH scavenger-containing composition.
(§6) Cell viability was detected by MTT assay (absorbance at 570 nm). ROS (Reactive Oxygen Species) was detected by DCFH-DA assay (fluorescence at 488 nm).
(Formazan colour is commonly taken as a measure of viable cells.)

The subject of series [6] is HepG2 Liver Cells. The series is described as follows: HepG2 ROS under EtOH exposure (DCFH-DA assay). The series is classed as cell-based. The following applies: HepG2, 100 mM EtOH for 24 hours. On the procedure:
as §5, §6

B1: ADH: ADH purified from Saccharomyces cerevisiae (500 U/mg protein), SEQ ID NO: 1 (protein, listed as Saccharomyces cerevisiae)
chain: MSTAVAVLTSNADTDIFAKPVAGVDGSHVIDAAAVFGLGKETVVDALKDYKTGATTPAVAQKLGVEGAKALVGVPQKVESNDFFVAKAKDAGTEVIVGGMGGVGLSAIGASLKPGYELDKAKIEVASKLAAGAKVTVITPQCGHEVIVGVPPDSQNLSMRIAQLGGKSPFTKEKDLNYFAVEKAKELGATGSKIINLIMGKVMPEGQKIHLGHEIVGDLGVVTKDAASGKLPIISIGHEAVKNAVKVLENAELEGLTKEGAKVTVVGNPQIYSDDHVAVAGTSLSTLNKLLDAIKKADTSKPIQEVLSDKAKEVGIEEGLMTTVHAITGAAGAASALPFGVTAAL
On to B1, for which the “EtOH Final” value in series [1] (100 mM EtOH start) is listed as 85.8 mM. Besides, the “EtOH Reduction (%)” value in series [1] (100 mM EtOH, 1 mL) came out at 14.2%. The “AcH Final” value in series [2] turned out to be 235 µM. Also, the “EtOH concentration (% of control)” value in series [3] (0 min) is listed as 95 % of control; in series [3] (15 min) it was 85.2 % of control; in series [3] (30 min) it was 75.8 % of control; in series [3] (60 min), 68 % of control; in series [3] (120 min) it was 44.8 % of control. In addition, in series [4] (EtOH 5-200 mM), the maximum rate (Vmax) stood at 105.2 µmol/min. The kcat in series [4] (EtOH 5-200 mM) is reported as 105.2. The Km in series [4] (substrate EtOH 5-200 mM) is 32.5 mM. For the same molecule, the “ADH activity (% of t = 0)” value was 87 % of t = 0 with ADH (30 min) and 62 % of t = 0 with ADH (60 min). In addition, the “Cell viability (%)” value in the series on HepG2 Liver Cells [5] (MTT) was found to be 67.1%. For the same molecule, in the series with HepG2 Liver Cells [5] (results interpretation), the “Overall Impact on Viability (in words)” value is recorded as “Viability increases”. For the same molecule, the “ROS (% of control)” value with HepG2 Liver Cells [6] (DCFH-DA, control = EtOH only) is 85.6 % of control. Also, in the series on HepG2 Liver Cells [6] (results interpretation), the “ROS Impact (in words)” value was “Moderate ROS”.

A word on the Vmax: it is the rate approached at saturating substrate. For orientation: Km means the substrate concentration at which the rate is half of its maximum.
